Assay: soluble on expression in E. coli; label from the status in PepcDB or PDB records

| Sequence | soluble on expression in E. coli |
| --- | --- |
| MFERYQAGEQAVLVHLDFPDESSREDLSEFKMLVSSAGVQALTVVTGKRNTPHPRFFVGSGKAEEIRDAVHLVGANVVLFNHSLTPSQEKNIEALCECRVVDRTTLILDIFAQRARTHEGKLQVELAQLRHMSSRLIRGWTHLERQKGGIGLRGPGETQLETDRRLLRERMVNIRKRLGKVEVQRQQGRRARTRAELPTLSLVGYTNAGKSTLFNTLTQSDVYAADQLFATLDPTLRKIDLFGVGRVILADTVGFIRHLPHDLVAAFKATLTETREAELLLHVVDISDDRRSENIEQVEYVLKEIEANDVPQLIICNKIDNLDDIEPRIDRDDQGMPIRVWLSAQANIGTELLFTALAERLDIQVVNHQLSIPPSAGKLRGELYKLNCVTSETYDEQGHCHLEVNMPSREWERLISTKYSELVDYIEHLEHHHHHH | not soluble |
| MGSDKIHHHHHHMEEVIKLNSVDQYNKMYGLETLHPLVTVVDLSKATVFPTHFTLNYGLYALFLKQTKCGDLRYGRQMYDYQEGTVTSFAPGQVVEVKLNDGVRPMSHGILFHPDLIRGTSLGQEIKHYSFFSYASNEALHLSDDEKKIFQDCLDKVQQELSRPIDKHSKRLIARNIELLLDYCMRFYERQFVTRSKVNKDVLMKFEDLLDVYFQSEQSPNEKLPTVKYFADKVNLSSNYFGDLIKKETGKTAQEYIQGKIINIAKERILASEKTVSEIAYELGFQYPQHFTRIFKKVVGCTPTEYRVIQV | not soluble |
| MKTPDQKSCETAESSNTKYSPNLVIDGAAVSNEDVAGKVADLEYAHSFPDLVLNVEKHDDEYIKSFLLQRNWYHGMMFGKAAEKLLKWESSYIVRRSMGPTHKFLCITARVEDKYFHFQFNWNSEGWSCPILYEKFPRIPVKRYEHIYQLLDAWSLVVNQLVPISRCSMILQHSSIALENQLGRGAFGEVIKAKYVPMGATVPTEVAVKRLIGDAKRPQLVDFCNEANIMTLLEHKNIVALYGFASLQQPIMLVIEFVPGGDLRKYLQRTPNVPSKQIIKFAMEIASGMKHLSSKNVIHRDLAARNCLITKELNVKISDFGLSVNESETKMKSLKKAPIRWLSPETFSKGLFNEKTDVWSYGVLLTELMTRCAHDPLWPKNLKQVQKWIKESEHPHKIEDGDPSELKEIVDACCAKIPSVRINFREVKNRLAMLQQKKKTLELDAQKPMSPNPAIEKKKSEDRRNNMDRRNKTNRKSHTSTDRTNSNNTLTRKKSRDAGKNDRSNERKNKAKGGNLSVDGTNKSSRRKEQKGAVGISQEMVTK | not soluble |
| MSDSAVVAAAVEPKVPKAKAAKAAKPTKVAKAKAPVAHPPYINMIKEAIKQLKDRKGASKQAILKFISQNYKLGDNVIQINAHLRQALKRGVTSKALVQAAGSGANGRFRVPEKAAAAKKPAAAKKPAAAKKPAAAKKATGEKKAKKPAAAKPKKAATGDKKVKKAKSPKKVAKPAAKKVAKSPAKKAAPKKIAKPAAKKAAKPAAKA | soluble |
| MSQGQSKKLDVTVEQLRSIYHQFHDILEEKTDLHLPKKEYDDDAVRREVQIQLQEFLLSAMTMASKSLEVVNADTVGKTVKQLIMESQEKYMEPFDLDLNEQVRKMYQEWEDETVKVAQLRQTGPAKINEVYNNSKDEYLAQLDGRIGVLQARMMQQQSADHDDSTDDADDHINWEHIKQDYVASLNELYQTQQDLPKVRYNVEKVKRLMDFLEED | soluble |
| MGSDKIHHHHHHMKLIAVGDNVVDYYQDQETFYPGGNALNVAVLAKRLGHESSYIGIVGNDEAAAHLLNVLKLEQVNADYIRQAHGENGMAIVTLDEQGDRIFVRSNKGGIQSRLRLAFQEKDVSFISGHDLLHTSVYSRLENDLPQLCGLVPVSFDFSTNREDDYLRRVCPYVTYAFFSGSDLSESECGELAKTAHGYGAKMVCMTRGGQGAILSAGDRVYHQPIVEADIIDTLGAGDSFIAGFLTAFCVKQDITYALRQAAETAAKTCGVYGAFGYGYPYRLEDGGSSEKTRIL | not soluble |
| VVRRLTSPRLEFEAAAIYEYPEHLRSFLNDLPTRPGVYLFHGESDTMPLYIGKSVNIRSRVLSHLRTPDEAAMLRQSRRISWICTAGEIGALLLEARLIKEQQPLFNKRLRRNRQLCALQLNEKRVDVVYAKEVDFSRAPNLFGLFANRRAALQALQTIADEQKLCYGLLGLEPLSRGRACFRSALKRCAGACCGKESHEEHALRLRQSLERLRVVCWPWQGAVALKEQHPEMTQYHIIQNWLWLGAVNSLEEATTLIRTPAGFDHDGYKILCKPLLSGNYEITELDPANDQRAS | soluble |
| GMPALITYRTTVQEDWVDYNGHLRDAFYLLIFSYATDALMDRIGLDADSRGQSGNSLFTLEAHINYLHEVKLGTEVWVQTQILGFDRKRLHVYHSLHRAGFDEVLAASEQMLLHVDLAGPQSAPFGHTTVCRLNHLVEQQEGAQAPQYMGRTIKLPA | soluble |
| SEFKVTVCFGRTRVDVPCGDGRMKVFSLIQQAVTRYRKAVAKDPNYWIQVHRLEHGDGGILDLDDILCDVADDKDRLVAVFDEQD | soluble |
| MQAEILLTLKLQQKLFADPRRISLLKHIALSGSISQGAKDAGISYKSAWDAINDMNQLSEHMLVERATGGKGGGGAVLTRYGQRLIQLYDLLGQIQQKAFDVLSDDDALPLDSLLAAISRFSLQTSARNQWFGTITARDRDLVQQHVDVLLADGKTRLKVALTAQSGERLGLEEGKEVLILLKAPWVGITRDAAVARAADNQLSGTISHIERGAEQCEVLMALPDGQTLCATIPTSDAATLKEGDDVIAWFNADRVIIATLC | not soluble |
| GPGSMSSSAPLSTQQPAPLPLQRQQQQQSTQSMLDAIRQQGWGSASSGGGDAMPSDASSRGMEGHSGAKLACPQMHEGHSAISSRPFNSEGADKPFAAVAATREASEAAKNSYDSMQPSADSQQLRGAEGECALPGHANAAAAAATLRNTNGVCEAIVTAARYGRSMEPSASVPAVTATAALVNVVAEEKERRRLSGPFGSYSTTDEVFHQKCNDVQRGSAIESADSRTDASGGALVVSPAYAAVPARVSEAPSPVDAEMQQLLADARRAYTAAEERLLSDGLALREDWMGTRDLFFAAGSLFAAVGEAADAARCLLHATFINRAFQNDSEAMVTLAMSVEQLKQSHPRIAVDSLLRLAPCYAQQDLRYQAARCHRDAAEILENILEAKEEAVVQYRAALDMYAETKVAAAETARRWERQQQQQRTAAIWGDLTGTPPLPPSAGASATNGDLTSPTAPGGVEATSLGSEQPFVSPKSTAPVPSSGGDSLTSSVNGQKPHSLEFPAHGPPQYRVSTTVQRSLADSCRWRLMILLTLLGRYDEAREAALDCAANVPRTLPKTKYLLYATLCVLARGASVKTDSTANSVSDPAAAAEAAQAPETPTTPFTAAAADTVYFDSLYDTEKFFLGLQDEDRTFQRGKENALVRALLAANRACSLTAFDEAVRAYKEYSTTEPCAAFELLAGECRRSLFEHMERFA | not soluble |
| MGHHHHHHSHKWELCPVTIISWLNLFLQVDALKDAPKVLLPQYSQETFIQIAQLLDLCILAIDSLEFQYRILTAAALCHFTSIEVVKKASGLEWDSISECVDWMVPFVNVVKSTSPVKLKTFKKIPMEDRHNIQTHTNYLAMLEEVNYINTFRKGGQLSPVCNGGIMT | not soluble |
| MFPSFLRRTAAKNGSYANEISSSIIINRPAERLFDLWRKPETLPILMGHFASIEILNHTDSNWRINTPIGSLIEWQARIIDEKPGEYIHWRSLEGARVPNEGRLSFQPAASEAGTAVTLTIRYNPPGGLIGKKIGQMFDMFSRDMLTKTLYRFKKLAEDERVLEHHHHHH | not soluble |
| MGSSEVSIIPGLQKEEKAAVERRRLHVLKALKKLRIEADEAPVVAVLGSGGGLRAHIACLGVLSEMKEQGLLDAVTYLAGVSGSTWAISSLYTNDGDMEALEADLKHRFTRQEWDLAKSLQKTIQAARSENYSLTDFWAYMVISKQTRELPESHLSNMKKPVEEGTLPYPIFAAIDNDLQPSWQEARAPETWFEFTPHHAGFSALGAFVSITHFGSKFKKGRLVRTHPERDLTFLRGLWGSALGNTEVIREYIFDQLRNLTLKGLWRRAVANAKSIGHLIFARLLRLQESSQGEHPPPEDEGGEPEHTWLTEMLENWTRTSLEKQEQPHEDPERKGSLSNLMDFVKKTGICASKWEWGTTHNFLYKHGGIRDKIMSSRKHLHLVDAGLAINTPFPLVLPPTREVHLILSFDFSAGDPFETIRATTDYCRRHKIPFPQVEEAELDLWSKAPASCYILKGETGPVVMHFPLFNIDACGGDIEAWSDTYDTFKLADTYTLDVVVLLLALAKKNVRENKKKILRELMNVAGLYYPKDSARSCCLA | soluble |
| MRSIFLLHFDYKTCEEEDFEDWNLADGKCLNGAKYMYKRRKQDARCLVKRTFKDMILHEIPCDSCTESDYECSSEFVRDAKGDCIPDYDQIALSDICDKANGETVSLEPLQLIKGDKCKKPMEIEAMNIPCEKILRESSNGKKIATIENKFDFEI | not soluble |
| MEFMKLAIEEAKKGMEKGDGGPFGAVIVKDGKVIGSGHNMVLVTKDPTAHAEVTAIRNTCKNVDNFDLSGCQLYTSCYPCPMCMGAALWSRVDAIYYGATSQDAANIGFGDHEFHEFLQNPKSDDKRKLEQFKVDNYLEPFQLWSKKDNKELY | not soluble |
| MSLENCKKVNYERVEKERESGSSISIRNFKREAYDSSGQLQWELRANESFVYVNENKTTFYDIDFDQYEAGKFKSKLLAEKGEINHKTRLMLLEGKILLKTDDHKILTAKTMEYNMDTKKLVSDSEVSVSADGTTIRGIGLRADKDLNKFTILKPTAITQGGTNPLKAAGSPEGHHHHHH | soluble |
| MNDRSSRRRTMKDDETFEISIPFDEAPHLDPQIFYSLSPSRRNFEEPPEAASSALALMNSVKTQLHMALERNSWLQKRIEDLEEERDFLRCQLDKFISSARMEAEDHCRMKPGPRRMEGDSRGGAGGEASDPESAASSLSGASEEGSASERRRQKQKGGASRRRFGKPKARERQRVKDADGVLCRYKKILGTFQKLKSMSRAFEHHRVDRNTVALTTPIAELLIVAPEKLAEVGEFDPSKERLLEYSRRCFLALDDETLKKVQALKKSKLLLPITYRFKR | soluble |
| MKRIGIDVGGTNTDAVLIDGDTIVASIKVPTTQDVLSGVKAALAHVAGHVGAADRPIDAVMIGTTHFTNAVVERARLERVAALRIALPTGSSLPPMCDWPKDLHDAVDPLIFMVHGGHEYDGSPLVPMIPDEIREAAMKIRDAGITSIAISATFSPLTTECEVRAAEIVRSVIPDARITLSHTLGRIGLLERENVALLNAALQTLGKTTVQAFSDALREAGVKAPFYLTQNDGTVSLADVAAANPVHSFASGPTNSMRGAAFLTGLSDAMVVDVGGTTSDIGCLVGGFPREANNIVHIGGVRTLFRMPDLLPIALGGGTIVDPETGKIGPRSVGYRILTEARVFGGETLTTSDIAVAAGLIEIGDRDRVKDLDSTFVQATLQRIRNMVADSFDQMKTSAEDVPLVAVGGGAFLIPETVPGASDVLRVENAGVANALGAAMAQVSGEVDQVFSGLSRDEALAKAETEAQNAAVASGAERTSLKTLEVEDIPIAYLPGGARRVRVRVIGDIAFHLEHHHHHH | not soluble |
| MGSDKIHHHHHHMSNEFDSDRYSTYWAEEWLDVKQYSPIGRHTRRKIMQLLARCPAPDTFADFGSGEGSLLSMVHAKYPAARLFGCDFASESVRRCRQRLPQAEIVLKDLTDPEPPFAGRVSVGVCSEVLEHIEDDARALHNLGTWAEHVIITVPGGELDESSRAVGHLRHYTKDSLRGLARRAGLEVLHLEEWGFPFSYPWYARVRNKAGYGMMVGRYSMRKKLLCHALYLLFFGNDLFSSGNKLFMLCRGSKA | not soluble |
